In patent US12485192B2, “Cellular targeted label delivery system” (CELLIS AG, priority 2016, dated 2025):

System: CD45+ leukocyte cells (macrophages, monocytes, lymphocytes, granulocytes)
Test: Uptake of iron binding proteins by CD45+ leukocyte cells in culture
Assay type: cell-based, mouse
Details: incubation 1-4 hrs, 0.1-0.2 mg/ml protein solution, standard culture conditions; FIG. 5
Procedure: (§1) Obtained cells are incubated in ferritin solution for a time and at the concentration sufficient to ensure proper ratio of ferritin/cell for their full load and also to ensure proper contrast content to obtain proper imaging). The time and concentration may vary depending on the number of molecules encapsulated/adsorbed into the ferritin cage, status of cell activation, condition and number of their intended administration.
For example, to ensure proper load with ferritins, cells are incubated for 1-4 hrs in ferritin solution 0.2 mg/ml in standard culture conditions. The frame of ferritin concentration may vary at least between 0.01 and 4 mg/ml as well as incubation time (5 min-6 hrs or more). Adjusting time and concentration of ferritin load to cells, the influence of ferritin and treatment conditions on cell viability should be minded.
as §1, with “haemoglobin” for “ferritin”, “haemoglobin/cell” for “ferritin/cell”, “imaging.” for “imaging).”, “linked with” for “encapsulated/adsorbed into”, “haemoglobin molecule,” for “ferritin cage,”, “administration. […]” for “administration.”

B1: ferritins: recombinant mouse ferritin protein of SEQ ID NO: 4 expressed in E. coli (protein)
chain: MTTASPSQVRQNYHQDAEAAINRQINLELYASYVYLSMSCYFDRDDVALKNFAKYFLHQSHEEREHAEKLMKLQNQRGGRIFLQDIKKPDRDDWESGLNAMECALHLEKSVNQSLLELHKLATDKNDPHLCDFIETYYLSEQVKSIKELGDHVTNLRKMGAPEAGMAEYLFDKHTLGHGD
In the case of B1, the “uptake of iron binding protein by cells” value is reported as “very easily uptake”.
